Data set [1] relates to PSMA. Put plainly: Binding of FITC-labeled 107-1A4 to 22Rv1 cells by flow cytometry (Example 4). The arrangement: species or system human. The following applies: 22Rv1 cells that were or were not incubated with enzalutamide. The source says:
Mean fluorescence intensity (MFI) of bound molecules on live cells is shown on the y-axis. Concentration (nM) of the anti-PSMA monoclonal antibody 107-1A4 labeled with FITC is shown on the x-axis.
22Rv1 cells (PSMA+ at low level) were obtained from ATCC (Manassas, Va.) and cultured according to the ATCC protocol in RPMI-1640 media plus 10% FBS. […] All four cultures were harvested, stained for PSMA with FITC-labeled anti-PSMA monoclonal antibody 107-1A4 (Acris), and PSMA expression assayed by standard flow cytometry procedures. 22Rv1 cells were harvested with trypsin, and placed into FACS buffer (PBS+0.5% BSA [Equitech]+2 mM EDTA [Life Technologies]) at 1×10e6 per ml. FITC-107-1A4 was prepared at 36 nM in FACS buffer, and serially diluted 1:3, before adding 50 μl to 2×10e5 22Rv1 cells which had been pelleted in a 96 well plate. After 30 minute incubation on ice, cells were washed 3 times in FACS buffer, resuspended in FACS buffer, and data acquired on a BD LSRII flow cytometer. The sample files were analyzed using FlowJo software; the median fluorescence intensity (MFI) of the live population of 22Rv1 cells in each well was calculated after gating on live cells (forward vs side scatter). Median fluorescence intensities were fit to a 4-parameter logistic curve and graphed as concentration vs. MFI using GraphPad PRISM® software.
On the technique in general: A flow cytometer gives signals particle by particle.

For data set [2], the system named is LNCaP cells. As to the kind of experiment: Growth inhibition of LNCaP-GFP cells with primary human T-cells, 4 days, with combination index analysis (Example 6). In kind it is cell-based. Here is the method: Additional procedures are described in Example 6. Percentage of live cells relative to an untreated control is shown on the y-axis.
Combination indices can indicate additive effects (CI=1), synergism (CI<1), or antagonism (CI>1).
Overall fluorescent signal from GFP enabled the quantitation of living LNCaP target cells in isolation from T-cells. […] TSC249 was added to have final concentrations of 125, 62.5, 31.25, 15.6, 7.8, 3.9, or 1.95 pM, or none. T-cells from several donors were used in replicate experiments, added at a ratio of 45,000 T-cells to 15,000 LNCaP cells per well.
After 4 days culture at 37° C. in 5% CO2, media was aspirated from wells and […] of 0.4% NP-40 was added to each well. Fluorescent signal from GFP in LNCaP cells adherent in wells was detected by a Spectramax plate reader, reading from the bottom of the wells. […]
The combination index theorem developed by Chou and Talalay was used to determine the interaction between the two compounds in their anti-cancer activity (see Chou, Cancer Res. 2010 Jan. 15; 70(2):440-6; Chou, Pharmacol Rev. 2006 September; 58(3):621-81). For each plate, relative fluorescence units (RFU) of all wells were normalized to the RFU of the well containing cells only, i.e., the proportion of living LNCaP cells in each well was expressed in relation to untreated LNCaP cells. […] Mean values were calculated from three replicates. […]

In data set [3] the test system is LNCaP cells. Put plainly: Effect of enzalutamide on redirected T-cell cytotoxicity in LNCaP cells expressing GFP (Example 1). The class given is cell-based, human. The following applies: TSC249 titration with T-cells and […] nM enzalutamide, compared to TSC249 and T-cells alone. On the set-up: reduction of live target cells: dose or concentration left out as unconfirmed. On the procedure: A titration of the anti-PSMA bispecific molecule TSC249 (protein sequence of SEQ ID NO: 78 in Table 3) was added to all sets of LNCaP cells in the amounts shown on the x-axis. T-cells and DMSO were added to the first set of LNCaP cells (leftmost set of bars). […] No T-cells and DMSO were added to the third set of LNCaP cells (set of bars second from the right). […] LNCaP cell growth (number of live cells) was measured by overall fluorescence and expressed as a fraction of live cells relative to the cells untreated with TSC249 on the y-axis.
LNCaP cells expressing GFP were cultured with donor T-cells at a 3:1 ratio of T-cells to LNCaP target cells for 4 days. […] DMSO alone was added to other samples. A titration of the anti-PSMA bispecific molecule TSC249 (protein sequence of SEQ ID NO: 78 in Table 3) was added to the cell cultures. LNCaP cell growth (number of live cells) was monitored by overall fluorescence.

Data set [4] relates to 22Rv1 cells. Put plainly: Chromium-51 release assay of redirected T-cell cytotoxicity against 22Rv1 cells (Example 5). The class given is cell-based, human. The following applies: enzalutamide-treated 22Rv1 cells relative to untreated 22Rv1 cells. Here is the method: FIG. 3 (top panel) is a graph showing the results of a chromium-51 release assay measuring the effectiveness of the anti-PSMA bispecific molecule TSC249 at inducing redirected T-cell cytotoxicity in 4 hours against enzalutamide-treated and untreated prostate cancer 22Rv1 cells. Percent specific lysis relative to a total lysis control is shown on the y-axis. Concentration (pM) of the anti-PSMA bispecific molecule TSC249 is shown on the x-axis.
To compare the sensitivity of enzalutamide-treated and untreated 22Rv1 prostate cancer cells to target-dependent T-cell cytotoxicity, a bispecific binding molecule targeting PSMA and CD3 was tested in a chromium (^51Cr) release assay using donor T-cells as effector cells. [See, e.g., US 2014/0161800 A1, which describes multispecific binding molecules that bind to prostate-specific membrane antigen (PSMA) and CD3.]
Cytotoxicity was assessed by a ^51Cr release assay. […]
Plates were incubated for 4 hours, spun at 225×g for 3 minutes, and 25 μL of supernatant was transferred from each well to the corresponding well of a 96-well LUMAPLATE® sample plate (Perkin Elmer). Sample plates were allowed to air dry in a chemical safety hood for 18 hours, and then radioactivity was read on a Topcount scintillation counter using a standard protocol. […]

The results in this text go back to patent US20180022819A1, “COMPOSITIONS AND METHODS FOR COMBINATION THERAPY WITH PROSTATE-SPECIFIC MEMBRANE ANTIGEN BINDING PROTEINS” (APTEVO RESEARCH AND DEVELOPMENT LLC, priority 2015, published 2018).

B1: FITC-107-1A4: FITC-labeled anti-PSMA monoclonal antibody 107-1A4 (Acris) (antibody, V domains shown)
VH: EIQLQQSGPELVKPGASVKMSCKASGYTFTDYYMHWVKQNNGESLEWIGYFNPYNDYTRYNQNFNGKATLTVDKSSSTAYMQLNSLTSEDSAFYYCARSDGYYDAMDYWGQGTSVTVSS
VL: DVQITQSPSYLAASPGETITINCRASKSISKYLAWYQEKPGKANKLLIHSGSTLQSGIPSRFSGSGSGTDFTLTISSLEPEDFAMYYCQQHIEYPWTFGGGTKLEIKRA
On to B1, for which the “ECso values determined from binding curves” value in data set [1] was “no significant differences”.

B2: TSC249: anti-PSMA bispecific molecule targeting PSMA and CD3; protein sequence of SEQ ID NO: 78 (protein)
chain: DIQMTQSPSAMSASVGDRVTITCRASKSISKYLAWFQQKPGKVPKLRIHSGSTLQSGVPSRFSGSGSGTEFTLTISSLQPEDFATYYCQQHIEYPWTFGQGTKVEIKRGGGGSGGGGSGGGGSQVQLVQSGAEVKKPGASVKVSCKASGYTFTDYYMHWVRQAPGQGLEWMGYFNPYNDYTRYAQKFQGRVTMTRDTSISTAYMELSSLRSDDTAVYYCARSDGYYDAMDYWGQGTTVTVSSSEPKSSDKTHTCPPCPAPEAAGAPSVFLFPPKPKDTLMISRTPEVTCVVVDVSHEDPEVKFNWYVDGVEVHNAKTKPREEQYNSTYRVVSVLTVLHQDWLNGKAYACAVSNKALPAPIEKTISKAKGQPREPQVYTLPPSRDELTKNQVSLTCLVKGFYPSDIAVEWESNGQPENNYKTTPPVLDSDGSFFLYSKLTVDKSRWQQGNVFSCSVMHEALHNHYTQKSLSLSPGQRHNNSSLNTGTQMAGHSPNSQVQLVESGGGVVQPGRSLRLSCKASGYTFTRSTMHWVRQAPGQGLEWIGYINPSSAYTNYNQKFKDRFTISADKSKSTAFLQMDSLRPEDTGVYFCARPQVHYDYNGFPYWGQGTPVTVSSGGGGSGGGGSGGGGSAQDIQMTQSPSSLSASVGDRVTMTCSASSSVSYMNWYQQKPGKAPKRWIYDSSKLASGVPARFSGSGSGTDYTLTISSLQPEDFATYYCQQWSRNPPTFGGGTKLQITSSS
modifications: Humanized TSC249 Scorpion (huVL-VH#2 107-1A4 scFv-Fc-DRA222 scFv)
Take B2: the “interaction by combination index (Chou and Talalay)” value in data set [2] (1.95-31.25 pM TSC249 at all enzalutamide concentrations used (39, 156, 625 nM)) was “Synergy”. The “live cell signal when combined with the other drug” value in data set [2] (enzalutamide plus TSC249 over a wide range of concentrations, T-cells, 4 days) is recorded as “further decrease in live cell signal”. Moreover, in data set [3], the “reduction of live target cells” value is “higher dose-dependent reduction of live target cells”. Besides, in data set [4], the “specific lysis from T-cell directed cytotoxicity” value is given as “increase in specific lysis”.
